Test results published in publication PMC2674207.

Molecular target: importin-α (PBMCs) (human (endogenous in PBMCs)) (UniProt P52292)
Test: co-IP; PBMCs from seven steroid-naive asthma patients after inhaled FP (100 or 500 µg via a spacer) or placebo in vivo, blood taken at 1 and 2 h; densitometry of blots

Substance: phospho-GATA-3 (PBMCs) (from UniProt P23771 1-443) (natural protein)
- GATA-3–importin-α association (densitometry, median), 2 h after inhaled FP 500 µg: 879
- GATA-3–importin-α association (densitometry, median), reference before the decrease: 13500
